These results are taken from US20200368361A1 (Regeneron, published 2020).

Assay [1] addresses T1, human MSR1 extracellular domain expressed with a N-terminal nonahistidine tag (His9-hMSR1); R&D Systems, Cat … (human, UniProt P21757 77-451).
T1 construct: extracellular domain; Bought protein; also called His-hMSR1
T1 sequence: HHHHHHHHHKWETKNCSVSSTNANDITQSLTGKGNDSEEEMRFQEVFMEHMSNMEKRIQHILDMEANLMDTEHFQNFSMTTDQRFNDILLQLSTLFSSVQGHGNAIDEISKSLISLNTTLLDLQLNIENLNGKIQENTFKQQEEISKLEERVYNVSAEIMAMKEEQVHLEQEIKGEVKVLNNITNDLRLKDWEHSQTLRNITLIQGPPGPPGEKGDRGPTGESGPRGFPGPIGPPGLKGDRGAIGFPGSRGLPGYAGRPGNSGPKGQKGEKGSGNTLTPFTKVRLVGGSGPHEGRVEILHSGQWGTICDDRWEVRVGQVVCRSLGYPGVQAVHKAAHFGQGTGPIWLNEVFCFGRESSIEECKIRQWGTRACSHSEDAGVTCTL
The assay can be described thus: SPR Biacore, 25C, mAb captured by anti-human Fc, MSR1 as analyte; calculated from kd fixed at 1.00E-05.
Description: (§1) Binding affinities and kinetic constants of human anti-MSR1 antibodies for different MSR1 reagents were determined by real-time surface plasmon resonance (Biacore 4000). All binding studies were performed in 10 mM HEPES, 150 mM NaCl, 3 mM EDTA, and 0.05% v/v Surfactant Tween-20, pH 7.4 (HBS-ET) running buffer at 25° C. and 37° C.
(§2) The association rate (kₐ) and dissociation rate (kd) were determined by fitting the real-time binding sensorgrams to a 1:1 binding model with mass transport limitation using Scrubber 2.0 c curve-fitting software.

The target of assay [2] is T2, monkey MSR1 extracellular domain expressed with a N-terminal hexahistidine-myc-myc tag (HMM-mfMSR1) (monkey (Macaca fascicularis)).
T2 chain: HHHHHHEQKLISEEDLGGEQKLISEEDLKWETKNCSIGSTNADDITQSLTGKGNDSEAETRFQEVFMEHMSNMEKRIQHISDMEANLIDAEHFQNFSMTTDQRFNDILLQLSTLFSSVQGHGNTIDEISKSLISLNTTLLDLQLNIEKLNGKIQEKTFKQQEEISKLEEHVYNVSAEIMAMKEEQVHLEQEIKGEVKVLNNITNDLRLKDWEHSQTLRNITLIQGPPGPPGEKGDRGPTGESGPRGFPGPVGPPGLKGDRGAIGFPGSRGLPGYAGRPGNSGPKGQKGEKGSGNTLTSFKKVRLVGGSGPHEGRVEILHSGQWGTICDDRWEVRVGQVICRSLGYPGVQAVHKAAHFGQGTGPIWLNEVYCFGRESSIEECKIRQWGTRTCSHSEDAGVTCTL
The description is as above.
Description: as §1, §2

Assay [3] addresses T3, full length human MSR1 with a C-terminal Myc tag on HEK293.Myc.hMSR1 cells (human, UniProt P21757 1-451).
T3 construct: whole, on cells
T3 sequence (looked up): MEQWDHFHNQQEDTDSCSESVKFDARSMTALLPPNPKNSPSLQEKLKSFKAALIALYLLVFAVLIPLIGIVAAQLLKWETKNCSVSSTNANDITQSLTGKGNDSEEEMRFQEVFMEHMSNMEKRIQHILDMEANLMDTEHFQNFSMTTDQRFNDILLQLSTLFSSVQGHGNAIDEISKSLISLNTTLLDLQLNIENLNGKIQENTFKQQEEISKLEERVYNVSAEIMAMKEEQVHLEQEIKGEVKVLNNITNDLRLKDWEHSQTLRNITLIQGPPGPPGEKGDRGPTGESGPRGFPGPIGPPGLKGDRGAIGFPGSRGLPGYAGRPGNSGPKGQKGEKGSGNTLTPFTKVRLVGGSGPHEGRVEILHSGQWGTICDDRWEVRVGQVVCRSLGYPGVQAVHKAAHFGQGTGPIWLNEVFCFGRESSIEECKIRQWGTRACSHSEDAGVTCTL
The experiment in a line: ECL cell binding, HEK293.Myc.hMSR1.
Description: (§3) All cells were washed once with 1×PBS with Ca²⁺/Mg²⁺ and counted with a Cellometer™ Auto T4 cell counter (Nexcelom Bioscience). Approximately 1.0×10⁴ cells were seeded separately onto 96-well carbon electrode plates [MULTI-ARRAY high bind plate, Meso Scale Diagnostics] and incubated for 1 hour at 37° C. Non-specific binding sites were then blocked by 2% BSA (w/v) in PBS with Ca²⁺/Mg²⁺ for 1 hour at room temperature. THP-1 cells were pre-incubated for 0.5 hours at room temperature in sample dilution buffer with: 1) 1 mg/mL Fc receptor block reagents to block Fc gamma receptors on THP-1 cell surface [whole molecule human IgG (Jackson Immunoresearch, Cat #009-000-003) for wells being tested with anti-MSR1-mFc antibodies or 2) whole molecule mIgG (Jackson Immunoresearch, Cat #015-000-003) for wells being tested with anti-MSR1-hFc antibodies. Antibody binding on HEK293.Myc.hMSR1, HEK293.mfMSR1 and HEK293 cells was tested without Fc receptor block reagents. […] Plates were then washed to remove unbound antibodies an AquaMax2000 plate washer with a cell washing head (MDS Analytical Technologies). […] Plates were washed and developed with Read Buffer (Meso Scale Diagnostics, Cat #R92TD-2) according to manufacturer's recommended procedure and luminescent signals were recorded with a SECTOR Imager 600 (Meso Scale Diagnostics). Luminescence intensity, measured in relative light units (RLU), was recorded to indicate the binding intensity of each antibody at the range of concentrations.

For assay [4], the target named is T4, monkey MSR1 extracellular domain expressed with a N-terminal hexahistidine-myc-myc tag (monkey (Macaca fascicularis)).
T4 construct: also called HMM-mfMSR1
T4 chain: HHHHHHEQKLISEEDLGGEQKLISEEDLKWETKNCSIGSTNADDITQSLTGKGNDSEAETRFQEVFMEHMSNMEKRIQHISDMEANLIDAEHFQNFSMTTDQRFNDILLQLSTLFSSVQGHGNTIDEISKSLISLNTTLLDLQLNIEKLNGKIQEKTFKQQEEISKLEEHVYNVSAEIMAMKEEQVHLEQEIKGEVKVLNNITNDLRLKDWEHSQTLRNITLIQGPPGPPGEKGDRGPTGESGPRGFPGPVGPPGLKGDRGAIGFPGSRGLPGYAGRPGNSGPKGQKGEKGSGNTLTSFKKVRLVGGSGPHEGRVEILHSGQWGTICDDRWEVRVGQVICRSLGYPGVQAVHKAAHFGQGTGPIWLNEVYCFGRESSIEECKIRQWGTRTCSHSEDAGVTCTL
The experiment in a line: SPR 37C, mAb captured; no dissociation seen, kd fixed.
Description: as §1, §2

In assay [5] the target is T5, human MSR1 extracellular domain expressed with a N-terminal nonahistidine tag (human, UniProt P21757 77-451).
T5 construct: extracellular domain; Bought reagent; also called His9-hMSR1
T5 sequence: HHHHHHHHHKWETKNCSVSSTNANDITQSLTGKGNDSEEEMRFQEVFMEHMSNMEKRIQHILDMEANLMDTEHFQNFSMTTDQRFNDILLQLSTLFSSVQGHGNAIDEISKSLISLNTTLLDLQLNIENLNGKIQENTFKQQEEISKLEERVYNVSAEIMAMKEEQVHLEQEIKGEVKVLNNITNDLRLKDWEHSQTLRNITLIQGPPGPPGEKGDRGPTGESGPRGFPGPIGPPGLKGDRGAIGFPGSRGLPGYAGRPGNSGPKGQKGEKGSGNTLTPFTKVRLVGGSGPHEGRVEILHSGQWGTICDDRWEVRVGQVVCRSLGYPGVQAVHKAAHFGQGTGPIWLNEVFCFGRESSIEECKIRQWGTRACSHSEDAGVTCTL
The assay is described as above.
Description: as §1, §2

Assay [6] has as its target T6, full length monkey MSR1 on HEK293.mfMSR1 cells (Macaca fascicularis, UniProt A0A2K5UWE2 1-451).
T6 construct: whole, on cells
T6 sequence: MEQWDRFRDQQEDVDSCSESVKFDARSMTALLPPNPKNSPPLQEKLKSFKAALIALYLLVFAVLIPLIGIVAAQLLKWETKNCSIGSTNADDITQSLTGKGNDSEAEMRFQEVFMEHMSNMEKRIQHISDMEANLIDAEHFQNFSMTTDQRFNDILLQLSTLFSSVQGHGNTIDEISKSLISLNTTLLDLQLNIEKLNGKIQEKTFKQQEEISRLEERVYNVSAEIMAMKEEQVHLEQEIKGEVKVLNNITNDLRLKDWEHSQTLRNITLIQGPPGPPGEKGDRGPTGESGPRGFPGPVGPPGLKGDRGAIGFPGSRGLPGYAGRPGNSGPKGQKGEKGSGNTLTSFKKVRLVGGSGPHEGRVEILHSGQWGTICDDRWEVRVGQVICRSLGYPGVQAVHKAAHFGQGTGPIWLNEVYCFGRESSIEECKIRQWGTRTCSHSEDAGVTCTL
The assay can be described thus: ECL cell binding, HEK293.mfMSR1.
Description: as §3

Assay [7] has as its target T7, mouse MSR1 on RAW264.7 cells (mouse, UniProt P30204 1-458).
T7 construct: whole, on cells
T7 sequence (looked up): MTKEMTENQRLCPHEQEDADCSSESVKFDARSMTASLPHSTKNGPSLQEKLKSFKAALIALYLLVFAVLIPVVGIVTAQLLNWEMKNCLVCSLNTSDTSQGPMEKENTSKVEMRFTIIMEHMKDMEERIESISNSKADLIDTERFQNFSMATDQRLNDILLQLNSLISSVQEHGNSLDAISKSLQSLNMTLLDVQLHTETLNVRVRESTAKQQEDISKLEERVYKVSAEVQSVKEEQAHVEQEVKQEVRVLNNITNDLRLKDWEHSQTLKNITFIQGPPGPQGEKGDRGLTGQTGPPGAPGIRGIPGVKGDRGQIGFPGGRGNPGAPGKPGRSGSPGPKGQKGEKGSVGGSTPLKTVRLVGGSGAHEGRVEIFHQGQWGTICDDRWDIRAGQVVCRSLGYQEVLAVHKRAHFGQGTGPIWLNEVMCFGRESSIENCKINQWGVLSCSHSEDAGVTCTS
The assay can be described thus: flow cytometry, RAW264.7 cells, 10 ug/mL.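 Further: antibodies bound to RAW264.7 cells for 30 min on ice after Fc block with mouse IgG, S/N is MFI relative to unstained cells.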
Description: To block binding to Fc receptors, RAW264.7 cells were incubated for 30 minutes at 4° C. with 500 μg/mL mouse IgG (Jackson ImmunoResearch, Cat #015-000-003) diluted in staining buffer, while B16F10.9 cells remained in staining buffer. Following Fc receptor blocking, 10 μg/mL of anti-MSR1 antibodies or an isotype control antibody were added to the cells and were subsequently incubated for 30 minutes on ice. […] The signal to noise (S/N) was determined by calculating the ratio of the anti-MSR1 antibodies or the control antibodies MFI to the unstained sample MFI (Table 16).

The target of assay [8] is T8, full length monkey MSR1 on HEK293.mfMSR1 cells (Macaca fascicularis, UniProt A0A2K5UWE2 1-451).
T8 construct: whole, on cells; also called mfMSR1 engineered cells
T8 sequence: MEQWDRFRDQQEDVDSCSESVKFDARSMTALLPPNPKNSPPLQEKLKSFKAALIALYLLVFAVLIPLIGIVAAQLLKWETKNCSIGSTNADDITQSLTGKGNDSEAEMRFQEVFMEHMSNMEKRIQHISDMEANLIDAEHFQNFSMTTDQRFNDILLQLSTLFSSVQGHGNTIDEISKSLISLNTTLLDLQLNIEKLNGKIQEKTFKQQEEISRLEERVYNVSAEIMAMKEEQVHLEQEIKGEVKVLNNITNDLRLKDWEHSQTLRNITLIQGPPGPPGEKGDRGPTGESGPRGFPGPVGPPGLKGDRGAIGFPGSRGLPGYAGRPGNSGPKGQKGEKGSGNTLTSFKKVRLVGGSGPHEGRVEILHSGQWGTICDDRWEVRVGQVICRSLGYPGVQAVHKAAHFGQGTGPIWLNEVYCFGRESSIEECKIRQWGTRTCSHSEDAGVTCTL
The experiment in a line: ECL cell binding (Meso Scale), ratio to isotype control compared with parental HEK293.

B1: H1H21234N (antibody, V domains shown)
VH: QVQLQESGPGLVKPSETLSLTCTVTGGSISRNYWSWIRQPPGKGLEWIGYIYYSGSIDYNPSLKSRVTISVDTSKNQFSLKLSSMTAADTAVYYCARDRWNWKYGMDVWGQGTTVIVSS
VL: EIVLTQSPGTLSLSPGERATLSCRASQTVRNNYLAWYHQKPGQAPRLLIYGASSRATGIPDRFSGSGSGTDFTLTISRLEPEDFTVYYCHQYGNSPWTFGQGTKMEIKR
notes: original human IgG1 Fc (no N297 mutation)
Take B1: the “t½” value in assay [1] and in assay [2] was 19.2 h throughout.

B2: H1H21234N (antibody, human IgG1, V domains shown)
VH: QVQLQESGPGLVKPSETLSLTCTVTGGSISRNYWSWIRQPPGKGLEWIGYIYYSGSIDYNPSLKSRVTISVDTSKNQFSLKLSSMTAADTAVYYCARDRWNWKYGMDVWGQGTTVIVSS
VL: EIVLTQSPGTLSLSPGERATLSCRASQTVRNNYLAWYHQKPGQAPRLLIYGASSRATGIPDRFSGSGSGTDFTLTISRLEPEDFTVYYCHQYGNSPWTFGQGTKMEIKR
notes: original human IgG1 Fc
In the case of B2, the results for the “binding signal ratio to isotype control (11 nM)” value in assay [3] and in assay [6] were 32 fold and 31 fold, respectively. Further, the dissociation constant (Kd) in assay [4] is not above 0.0138 nM; in assay [5], not above 0.0148 nM.

B3: H1H21234N-N297Q (antibody, human IgG1, V domains shown)
VH: QVQLQESGPGLVKPSETLSLTCTVTGGSISRNYWSWIRQPPGKGLEWIGYIYYSGSIDYNPSLKSRVTISVDTSKNQFSLKLSSMTAADTAVYYCARDRWNWKYGMDVWGQGTTVIVSS
VL: EIVLTQSPGTLSLSPGERATLSCRASQTVRNNYLAWYHQKPGQAPRLLIYGASSRATGIPDRFSGSGSGTDFTLTISRLEPEDFTVYYCHQYGNSPWTFGQGTKMEIKR
notes: human IgG1 Fc with N297Q
For B3, the entries for the “binding signal ratio to isotype control (11 nM)” value in assay [3] and in assay [6] were 43 fold and 35 fold, respectively. For the same molecule, the equilibrium dissociation constant (Kd) in assay [4] is not above 0.0133 nM; in assay [5], not above 0.0127 nM. Further, in assay [7], the MFI stood at 7050. In assay [7], the S/N amounted to 3.

B4: H1xH29273P2 (antibody, V domains shown)
VH: QVQLVESGGGVVQSGRSLRLSCAAAGFTFSNYGMHWVRQAPGKGLEWVALMSFDGSDKYYADSVKGRFTISRDNSKNTLYLQMNSLRAEDTALYYCAKGYDFWSGYWDYWGQGTLVTVSS
VL: not shown
notes: The H1xH prefix is not explained for the anti-MSR1 antibodies; Fc form as tested not clear
B4: in assay [8], the binding result is listed as “no binding (tested: 11 nM)”.
